B1: Hairpin Ribozyme (parent)
chain: GUCCUCUUUCACGUGCGCGUGAAAGAGAGAAGUGAACCAGAGAAACACACGUUGUGGUAUAUUACCUGGUA

Variants of B1 are the subject of the data set. Briefly: self-cleavage, relative activity (ratio to wild type); higher = more cleavage; co-transcriptional.
Regarding C10U A23G, the self-cleavage amounted to 0.551.

On to C10U A23U, for which the self-cleavage came to 0.652.

With C10U A23C, the self-cleavage is 0.637.

Take C10U U62G: the self-cleavage turned out to be 0.0799.

In the case of A11U G54U, the self-cleavage was found to be 0.565.

In the case of C10U G51C, the self-cleavage is 0.783.

For the variant C10U G42A, the self-cleavage was 0.195.

Consider A11G A24G, for which the self-cleavage is 0.792.

Consider A11G A24U, for which the self-cleavage came to 0.968.

Consider C10U C12G, for which the self-cleavage stood at 0.612.

Regarding C12A A30U, the self-cleavage worked out at 0.172.

For C12A A30G, the self-cleavage was 0.206.

As for C12A G57C, the self-cleavage is 0.17.

Take C12G A35U: the self-cleavage came out at 0.731.

Turning to C12G A35C, the self-cleavage turned out to be 0.74.

With A11U U63C, the self-cleavage amounted to 0.122.

For A11G A36U, the self-cleavage is 0.512.

Take C12G A64C: the self-cleavage stood at 0.334.

In the case of C12G A64U, the self-cleavage worked out at 0.173.

In the case of A11G U20C, the self-cleavage is 0.857.

Regarding A11G U20G, the self-cleavage was 0.982.

With A11G G57U, the self-cleavage was 0.392.

Take A11G G57A: the self-cleavage came to 0.159.

As to A11C U58C, the self-cleavage is 1.16.

Take A11C U58A: the self-cleavage amounted to 0.635.

With A11C C66A, the self-cleavage was 0.317.

On to A11C C66U, for which the self-cleavage came to 0.408.

Take A11U C48G: the self-cleavage was 0.0875.

With C12A C38A, the self-cleavage was found to be 0.18.

Regarding C12A U33A, the self-cleavage stood at 0.158.

As for C12A A26C, the self-cleavage is 0.393.

Consider A11G G27C, for which the self-cleavage is 0.198.

On to A11G G34C, for which the self-cleavage was found to be 1.3.

On to A11U C46U, for which the self-cleavage worked out at 0.0973.

Turning to A11U A49G, the self-cleavage came to 0.558.

On to A11G C48U, for which the self-cleavage stood at 0.144.

Turning to A11U A44U, the self-cleavage came to 0.22.

Regarding A11U A44G, the self-cleavage is 0.144.

For the variant A11G A44U, the self-cleavage stood at 0.137.

Turning to A11C U63G, the self-cleavage came to 0.134.

For A11C U63C, the self-cleavage is 0.141.

Turning to A11G G19U, the self-cleavage is 0.979.

Regarding A11C U70A, the self-cleavage amounted to 0.877.

Take A11C U70G: the self-cleavage is 0.608.

On to A11G U33G, for which the self-cleavage amounted to 0.131.

Turning to C10U A30G, the self-cleavage is 0.135.

Regarding C12G A26G, the self-cleavage was determined as 0.75.

Take C10U U70A: the self-cleavage is 0.704.

As for C10U U70C, the self-cleavage was found to be 0.637.

In the case of A11C C46A, the self-cleavage came out at 0.142.

Take A11C A49C: the self-cleavage turned out to be 0.192.

On to A11G G15U, for which the self-cleavage stood at 0.857.

On to A11G G15A, for which the self-cleavage worked out at 0.896.

In the case of C12A G29U, the self-cleavage stood at 0.201.

On to C12A G29C, for which the self-cleavage stood at 0.0897.

As for C12A G29A, the self-cleavage was found to be 0.162.

Regarding A11C A30G, the self-cleavage came to 0.0919.

Turning to C12G A59C, the self-cleavage came out at 0.076.

On to A11U A71U, for which the self-cleavage worked out at 0.701.

As to A11G A28G, the self-cleavage is 1.11.

For C10U U60A, the self-cleavage was found to be 0.67.

For C12A C65U, the self-cleavage amounted to 0.309.

In the case of C10U C66A, the self-cleavage is 0.183.

As to C10U U14A, the self-cleavage is 0.811.

With C12A A31U, the self-cleavage turned out to be 0.104.

As to C12A G42A, the self-cleavage is 0.168.

Turning to A11C A47G, the self-cleavage was 0.0993.

Take A11C A47C: the self-cleavage was 0.267.

Regarding C10U G57U, the self-cleavage came to 0.239.

Turning to C10U G57A, the self-cleavage was 0.249.

In the case of A11G G42U, the self-cleavage amounted to 0.314.

With A11G G42A, the self-cleavage came to 0.201.

On to A11G G42C, for which the self-cleavage is 0.322.

On to A11G A59C, for which the self-cleavage was 0.17.

Consider A11U G21A, for which the self-cleavage was determined as 0.586.

Take A11U G21U: the self-cleavage was determined as 0.915.

As for A11U A28G, the self-cleavage was 0.929.

In the case of C12G A61C, the self-cleavage was found to be 0.24.

C12G A44C: the self-cleavage turned out to be 0.202.

On to A11G G68A, for which the self-cleavage was 0.277.

Consider A11G G17C, for which the self-cleavage was 0.571.

With A11G G17U, the self-cleavage was found to be 0.823.

As to C12A G54A, the self-cleavage turned out to be 0.485.

For the variant C10U G25U, the self-cleavage was 0.509.

On to A11G A41U, for which the self-cleavage was 1.14.

Turning to A11C A36C, the self-cleavage came out at 0.471.

Take A11U C38G: the self-cleavage came out at 0.128.

As for C12A G19C, the self-cleavage worked out at 0.944.

For the variant C12A A64G, the self-cleavage is 0.411.

As for C12A A64C, the self-cleavage was determined as 0.101.

Consider C12A A71G, for which the self-cleavage was determined as 0.848.

With C12G A39U, the self-cleavage is 0.32.

Turning to A11G G29A, the self-cleavage is 0.101.

For A11C C65U, the self-cleavage came to 0.431.

A11C C65A: the self-cleavage worked out at 0.896.

Turning to A11C A28G, the self-cleavage was found to be 0.951.

For C10U C37G, the self-cleavage was 0.299.

For the variant C10U C37A, the self-cleavage came out at 0.364.

As to C12A G51A, the self-cleavage is 0.898.

In the case of A11G C37A, the self-cleavage is 0.149.

With A11G C37G, the self-cleavage came out at 0.34.

Take C10U U67C: the self-cleavage came to 0.206.

As for A11C A22U, the self-cleavage is 0.554.

Turning to C12A A61G, the self-cleavage was determined as 0.174.

With A11G C50U, the self-cleavage stood at 0.321.

Take A11U U52G: the self-cleavage turned out to be 0.362.

On to C12A C48U, for which the self-cleavage came to 0.112.

Regarding C10U A43U, the self-cleavage is 0.0631.

As to A11G A49G, the self-cleavage was found to be 0.577.

Take A11G A49U: the self-cleavage is 0.208.

Consider C12A C18G, for which the self-cleavage is 0.872.

As for C12A C18U, the self-cleavage stood at 0.834.

In the case of C10U G29A, the self-cleavage stood at 0.158.

As for A11U G19A, the self-cleavage was determined as 0.79.

On to A11U G19C, for which the self-cleavage stood at 0.687.

In the case of A11G U70C, the self-cleavage was 0.952.

As for A11G U70A, the self-cleavage was determined as 0.627.

Turning to C10U C16U, the self-cleavage came to 0.871.

In the case of A11C U62C, the self-cleavage came to 0.278.

As for A11C U62A, the self-cleavage was found to be 0.208.

In the case of A11C G57A, the self-cleavage is 0.116.

In the case of A11C G29A, the self-cleavage was found to be 0.128.

On to C10U U20C, for which the self-cleavage was 0.722.

For the variant A11U A22G, the self-cleavage worked out at 0.755.

Turning to A11G G32C, the self-cleavage is 0.0578.

As for C12A G56U, the self-cleavage was determined as 0.159.

For C12A G56C, the self-cleavage worked out at 0.0797.

Turning to C10U A28C, the self-cleavage was determined as 0.305.

With A11C U53G, the self-cleavage worked out at 0.863.

C10U G15U: the self-cleavage was determined as 0.843.

On to C10U G15A, for which the self-cleavage is 0.722.

Take C10U G15C: the self-cleavage amounted to 0.825.

As to A11U U53A, the self-cleavage was found to be 0.679.

With A11G U58A, the self-cleavage came to 0.557.

Take A11G U58C: the self-cleavage was found to be 0.81.

Regarding C10U A64G, the self-cleavage was determined as 0.606.

As for C10U A64U, the self-cleavage was determined as 0.134.

Regarding A11U G13A, the self-cleavage amounted to 0.672.

In the case of C10U C65G, the self-cleavage was found to be 0.284.

Regarding A11C G54C, the self-cleavage amounted to 0.378.

On to A11C G54U, for which the self-cleavage amounted to 0.583.

Consider A11C G34A, for which the self-cleavage worked out at 1.01.

As for A11C G34C, the self-cleavage came out at 1.07.

Take C10U U52A: the self-cleavage turned out to be 0.761.

As for A11U A26G, the self-cleavage was determined as 0.751.

Consider A11U A26U, for which the self-cleavage stood at 0.775.

C12A G32C: the self-cleavage came to 0.0893.

On to C12A A24G, for which the self-cleavage was determined as 0.676.

Regarding C12A A24C, the self-cleavage came to 0.914.

C12A A49U: the self-cleavage stood at 0.256.

For the variant C12A A49G, the self-cleavage turned out to be 0.474.

As for A11U A24C, the self-cleavage worked out at 0.211.

Regarding A11C U52G, the self-cleavage came out at 0.857.

For the variant A11G A22C, the self-cleavage amounted to 0.779.

On to A11G A22U, for which the self-cleavage turned out to be 1.01.

Take A11G A22G: the self-cleavage was found to be 0.774.

Take A11C C37A: the self-cleavage was found to be 0.37.

On to A11C C37U, for which the self-cleavage came out at 0.494.

Take A11C C37G: the self-cleavage was found to be 0.435.

On to C10U U33C, for which the self-cleavage is 0.0734.

On to C10U U33G, for which the self-cleavage came to 0.196.

As to C12G A43U, the self-cleavage came out at 0.196.

As for C12G A43G, the self-cleavage came out at 0.139.

As for C12G A43C, the self-cleavage was 0.125.

C12A U55A: the self-cleavage came to 0.288.

With C12A G27A, the self-cleavage was found to be 0.378.

In the case of C12A G27U, the self-cleavage stood at 0.249.

These data come from the RNAGym collection of RNA variant scans (doi:10.7554/elife.80360).
